# Numbering of substitutions follows the chain as printed. Several values for one entry are separate records, joined by “and”; a condition that tells them apart may be missing. Equal values may be shown once.
# B1: 13P30A7 hIgG1 (antibody, V domains shown)
# VH: EVQLVESGGGLVQPKGSLKLSCAASGFTFNTYAMNWVRQAPGKGLEWIARIRSKSNNYATYYADSVKDRFTISRDDSQSLLYLQMNNLKTEDTAIFYCVTDYGYVYFDAWGAGTTVTVSS
# VL: NIIMTQSPKSMAMSVGERVTLSCKASENVGNYVSWYQQKPEQSPKLLIYGASYRYTGVPDRFTGSGSGTDFTLTISSVQAEDLADYHCGQSSRYPLTFGAGTKLELKR
# notes: Chimeric antibody: murine variable regions of F13P30A7 with constant regions of human IgG1, kappa isotype; also called chP30A7; chP30a7
# B2: F13P14D3 (antibody, V domains shown)
# VH: B1 VH with A24T, I48V, A63V, L80T, L81V, Y82H, F96Y, Y104H, A109V
# VL: B1 VL with I3V, A12S, E17Q, N31S, Y53N, Y55N, G68A, A100G
# notes: Murine IgG purified from hybridoma supernatant
# B3: F13P30A7 (antibody, V domains shown)
# VH: B1 VH
# VL: B1 VL
# notes: as for B2
# B4: F13P18D8 (antibody, V domains shown)
# VH: B1 VH with V5L, K15E, T28A, I48L, S79G, L80M, I95M, F96Y, G103Y, A109V
# VL: B1 VL with I3V, A12S, N31T, P40S, E41D, Y53N, G68A, S76T, A80S
# notes: as for B2
# B5: 12P16F6 hIgG1 (antibody, V domains shown)
# VH: QVQLQQSGAEVVKPGASVKLSCKASGYTFTSYYLYWVKKGPGQGLDWIGEIYPRSGGTNINEKFLSKATLTADESSSTAYLQLSSLTSEDSAVYYCTRSLLYWGQGTTLIVSS
# VL: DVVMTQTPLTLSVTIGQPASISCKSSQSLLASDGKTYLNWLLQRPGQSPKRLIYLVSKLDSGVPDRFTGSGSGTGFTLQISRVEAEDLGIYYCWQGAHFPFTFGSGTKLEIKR
# notes: Chimeric antibody: murine variable regions of F12P16F6 with constant regions of human IgG1, kappa isotype; also called chF6; chP16F6
# B6: F12P16F6 (antibody, V domains shown)
# VH: B5 VH
# VL: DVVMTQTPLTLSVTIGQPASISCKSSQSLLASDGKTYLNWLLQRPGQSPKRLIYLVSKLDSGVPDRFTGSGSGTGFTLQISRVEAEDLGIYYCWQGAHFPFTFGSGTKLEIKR
# notes: Murine hybridoma antibody (IgG); tested as hybridoma supernatant in FACS and as purified murine IgG in SPR
# B7: hF6-HN-G7 (bispecific antibody, human IgG1, kappa)
# heavy: not shown
# light: DVVMTQTPLSLSVTPGQPASISCKSSQSLLASDGKTYLNWLLQRPGQSPKRLIYLVSKLDSGVPNRFSGSGSGTDFTLQISRVEAEDVGLYYCWQGAHFPFTFGSGTKLEIKRTVAAPSVFIFPPSDEQLKSGTASVVCLLNNFYPREAKVQWKVDNALQSGNSQESVTEQDSKDSTYSLSSTLTLSKADYEKHKVYACEVTHQGLSSPVTKSFNRGEC
# notes: G7 Fynomer fused through the linker to the N-terminus of the hF6 heavy chain; IgG1/kappa
# B8: F12P18D4.a (antibody, V domains shown)
# VH: EVQLQQSGPELVKPGASVKMSCKASGYTFADYYMKWVKQSHGKSLEWIGDINPNSGDTFYNHKFKGKATLTVDKSSSTAYMQLNSLTSEDSAVYYCARTYYDYWGQGTTLTVSS
# VL: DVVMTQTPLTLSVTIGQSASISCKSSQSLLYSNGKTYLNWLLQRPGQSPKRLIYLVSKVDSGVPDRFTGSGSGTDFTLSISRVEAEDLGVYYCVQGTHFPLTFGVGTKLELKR
# notes: as for B2
# Experiments:
# [1] = target: T1, Cynomolgus monkey CD138 on transfected Expi293 cells (cynomolgus monkey, UniProt P18827 23-310 (human entry)); experiment: FACS titration on Expi293 cells transfected with cynomolgus CD138
# T1 construct: also called cyno CD138
# T1 chain: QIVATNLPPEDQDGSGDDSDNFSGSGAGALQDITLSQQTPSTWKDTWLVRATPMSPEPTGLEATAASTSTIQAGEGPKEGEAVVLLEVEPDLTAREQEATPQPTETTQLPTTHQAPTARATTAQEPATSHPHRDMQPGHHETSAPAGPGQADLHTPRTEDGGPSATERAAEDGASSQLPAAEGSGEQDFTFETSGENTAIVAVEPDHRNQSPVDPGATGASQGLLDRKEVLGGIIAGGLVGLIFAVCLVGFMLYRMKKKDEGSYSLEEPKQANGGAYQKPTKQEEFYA
# Description: Briefly, a vector directing the cell-surface expression of human CD138 or cyno CD138 was transfected in Expi293 cells.
# Human CD138 His [2] = target: T2, Human CD138 His (human, UniProt P18827 23-254); experiment: SPR, summary table
# T2 construct: also called hCD138
# T2 sequence: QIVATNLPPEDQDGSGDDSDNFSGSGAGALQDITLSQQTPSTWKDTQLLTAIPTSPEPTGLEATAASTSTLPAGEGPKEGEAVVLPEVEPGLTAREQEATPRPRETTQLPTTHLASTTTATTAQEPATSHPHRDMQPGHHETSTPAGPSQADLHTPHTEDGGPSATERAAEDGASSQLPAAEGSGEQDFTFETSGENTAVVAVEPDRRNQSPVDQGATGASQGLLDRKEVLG
# Description: (§1) Murine IgGs were purified from the hybridoma supernatants and the IgGs were subject to SPR (surface plasmon resonance) for kinetic binding measurements. Human or mouse CD138 His was immobilized on a GLM chip at […] on a BioRad Proteon. […] KDs were measured using bivalent analyte fit.
# [3] = target: T3, Mouse CD138 (ELISA binding assay, data not shown) (mouse, UniProt P18828 23-255, limits assumed); experiment: ELISA binding assay
# T3 construct: Construct used in the ELISA is not described
# T3 sequence: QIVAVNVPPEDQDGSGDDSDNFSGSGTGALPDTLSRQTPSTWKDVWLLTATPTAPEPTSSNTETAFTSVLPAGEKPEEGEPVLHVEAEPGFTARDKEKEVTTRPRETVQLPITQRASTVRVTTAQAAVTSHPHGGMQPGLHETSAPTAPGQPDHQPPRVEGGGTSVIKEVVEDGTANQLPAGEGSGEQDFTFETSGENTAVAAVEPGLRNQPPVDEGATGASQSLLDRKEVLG
# Human CD138 His [4] = target: T2, Human CD138 His; experiment: SPR (BioRad Proteon), CD138 His immobilized, bivalent analyte fit
# Description: as §1
# [5] = target: T4, hCD138 peptide AGEGPKEGEAVVLP (human); experiment: ELISA, plate-coated hCD138 peptide
# T4 construct: Portion of the linear CD138 peptide used for immunization; also the peptide in the crystal structure; also called syndecan-1 peptide
# T4 peptide: AGEGPKEGEAVVLP
# Description: (§2) A CD138 binding ELISA was performed with 9 representative humanized antibodies to determine binding to portion of the linear CD138 peptide used for immunization (FIG. 7). […] Coated plates were incubated with various dilutions of each of the 9 representative antibodies overnight and binding was detected with a goat anti-human IgG (H+L)-HRP. EC50s were determined using four parameter fit curves (Table 21). An ELISA was also performed to detect binding to plate-coated human CD138-Fc protein (Table 21).
# [6] = target: T5, Human syndecan-1 (CD138) on the cell surface (human, UniProt P18827 23-310); experiment: FACS on RT112/84 cells (previous experiments); RT112/84 bladder cancer cells (printed RT-122/84), previous experiments
# T5 construct: Endogenous on H929, KMS-11 and RT112/84 cells or transfected into Expi293 cells; also called human CD138; hCD138
# T5 sequence: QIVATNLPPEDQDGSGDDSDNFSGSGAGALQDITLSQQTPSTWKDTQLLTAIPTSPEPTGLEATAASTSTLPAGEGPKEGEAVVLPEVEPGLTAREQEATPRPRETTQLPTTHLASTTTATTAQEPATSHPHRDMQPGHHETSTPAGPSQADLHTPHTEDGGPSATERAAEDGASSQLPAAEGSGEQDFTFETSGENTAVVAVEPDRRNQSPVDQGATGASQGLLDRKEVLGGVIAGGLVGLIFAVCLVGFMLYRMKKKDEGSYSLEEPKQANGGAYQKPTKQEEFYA
# [7] = target: T5, Human syndecan-1 (CD138) on the cell …; experiment: FACS on KMS-11 cells (previous experiments); KMS-11 multiple myeloma cells, previous experiments
# Human CD138-Fc protein = target: T6, Human CD138-Fc protein (human, UniProt P18827 23-254); experiment: ELISA, plate-coated human CD138-Fc
# T6 construct: also called hCD138-Fc
# T6 sequence: T2 sequence
# Description: as §2
# [8] = target: T7, Negative control peptide QAAVTSHPHGGMQPGLHETSA (mouse); experiment: told in the method of the peptide ELISA
# T7 construct: also called mouse CD138 peptide
# T7 peptide: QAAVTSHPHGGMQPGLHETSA
# Description: as §2
# Mouse CD138 His [9] = target: T8, Mouse CD138 His (mouse, UniProt P18828 23-255); experiment: SPR, mouse CD138 His immobilized
# T8 construct: also called mCD138
# T8 sequence: T3 sequence
# Description: as §1
# [10] = target: T9, Human FGFR3b on transfected CHO cells (human); experiment: FACS histogram on CHO cells expressing human FGFR3b (panel title FGFR3b K.I.); concentration not given
# T9 chain: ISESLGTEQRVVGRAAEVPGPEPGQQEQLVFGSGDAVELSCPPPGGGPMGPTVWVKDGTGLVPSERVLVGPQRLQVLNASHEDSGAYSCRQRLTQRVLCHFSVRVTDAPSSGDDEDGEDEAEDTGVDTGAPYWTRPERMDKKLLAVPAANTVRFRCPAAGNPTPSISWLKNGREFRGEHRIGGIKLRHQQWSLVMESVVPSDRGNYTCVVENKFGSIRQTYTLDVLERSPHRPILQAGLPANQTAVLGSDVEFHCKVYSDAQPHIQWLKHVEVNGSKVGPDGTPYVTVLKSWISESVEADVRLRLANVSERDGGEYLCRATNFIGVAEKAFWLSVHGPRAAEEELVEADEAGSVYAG
# Description: (§3) CHO cells (Chinese Hamster Ovary cells) were transfected to express the human FGFR3c (FIG. 16A) or human FGFR3b (FIG. 16B) on the cell surface.
# [11] = target: T10, hCD138 (ELISA of Table 29) (human, UniProt P18827 23-254, limits assumed); experiment: hCD138 ELISA
# T10 construct: also called human CD138
# T10 sequence: T2 sequence
# [12] = target: T11, Human FGFR3c on transfected CHO cells (human, UniProt P22607 23-375); experiment: FACS histogram on CHO cells expressing human FGFR3c (panel title FGFR3c K.I.); concentration not given
# T11 sequence: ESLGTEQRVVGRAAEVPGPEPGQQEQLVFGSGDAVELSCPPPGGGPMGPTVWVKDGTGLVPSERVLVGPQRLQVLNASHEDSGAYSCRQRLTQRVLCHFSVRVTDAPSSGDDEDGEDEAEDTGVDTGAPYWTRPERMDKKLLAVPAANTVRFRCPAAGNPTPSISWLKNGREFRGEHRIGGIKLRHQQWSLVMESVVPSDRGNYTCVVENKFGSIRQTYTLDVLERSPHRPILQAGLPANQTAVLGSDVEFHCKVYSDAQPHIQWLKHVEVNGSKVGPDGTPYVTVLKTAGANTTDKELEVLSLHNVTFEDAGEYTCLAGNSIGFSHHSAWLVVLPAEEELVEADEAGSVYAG
# Description: as §3
# Mouse CD138 His [13] = target: T8, Mouse CD138 His; experiment: SPR, summary table
# Description: as §1
# Mouse CD138 His [14] = target: T8, Mouse CD138 His; experiment: SPR (BioRad Proteon), mouse CD138 His immobilized, bivalent analyte fit
# Description: as §1
Binder,Kd (Human CD138 His [2]),binding result [3],Kd (Human CD138 His [4]),koff (Human CD138 His [4]),kon (Human CD138 His [4]),other results
B1,,,,,,binding result [1]: binds
B2,10 nM,no binding,9.67 nM and 9.7 nM,0.00104 s⁻¹,107000 M⁻¹ s⁻¹,
B3,5 nM,no binding,5.32 nM and 5.3 nM,0.00127 s⁻¹,238000 M⁻¹ s⁻¹,
B4,2 nM,no binding,1.88 nM and 1.9 nM,0.000523 s⁻¹,278000 M⁻¹ s⁻¹,
B5,,,,,,EC50 [5]: 0.599 nM; EC50 [6]: ~9 nM; EC50 [7]: ~3 nM; binding result [1]: binds; EC50 (Human CD138-Fc protein): 0.471 nM
B6,21 nM,,21 nM,0.00117 s⁻¹,55700 M⁻¹ s⁻¹,binding result [8]: no binding; binding result (Mouse CD138 His [9]): no binding (tested: 167 nM)
B7,,,,,,binding result [10]: binds; EC50 [11]: 0.69 nM; binding result [12]: binds
B8,29 nM,,28.6 nM,0.018 s⁻¹,631000 M⁻¹ s⁻¹,Kd (Mouse CD138 His [13]): 672 nM; Kd (Mouse CD138 His [14]): 672 nM
